Reference: patent publication US20220177587A1 (Alpine Immune Sciences, Inc., published 2022)
Changes are numbered by the printed parent chain. Numbers in names are those of the source. One block for each binder: values may come before it.

Tests used:
human CD28 [1] = target: human CD28 (human, UniProt P10747); assay: cell-based or functional assay
human PD-L1 = human PD-L1 (human, UniProt Q9NZQ7); assay: flow cytometry, CHO/PD-L1 cells; MFI over CD80 WT IgV-Fc
human CTLA-4 = human CTLA-4 (human, UniProt P16410); assay: flow cytometry, CHO/CTLA4 cells; MFI over CD80 WT IgV-Fc
human CD28 [2] = target: human CD28 (human, UniProt P10747); assay: flow cytometry, Jurkat cells (CD28); MFI over CD80 WT IgV-Fc

CD28 costimulation EC50, Jurkat/IL-2 luciferase reporter; SIP 2 (Supernatant) from Donor 1 Pan T-cells (human CD28 [1]): 0.282 nM | CD28 costimulation EC50, Jurkat/IL-2 luciferase reporter; SIP 2 (Supernatant) from Donor 2 Pan T-cells (human CD28 [1]): 0.75 nM | CD28 costimulation EC50, Jurkat/IL-2 luciferase reporter; SIP 2 (Supernatant) from Jurkat cells (human CD28 [1]): 0.75 nM
B1: SIP 2: Variant CD80 IgV-GSG4S-Inert Fc (E35D, D46V, M47L, and V68M) (Fc fusion)
chain: VIHVTKEVKEVATLSCGHNVSVEELAQTRIYWQKDKKMVLTMMSGVLNIWPEYKNRTIFDITNNLSIMILALRPSDEGTYECVVLKYEKDAFKREHLAEVTLSVKADGSGGGGSEPKSSDKTHTCPPCPAPEAEGAPSVFLFPPKPKDTLMISRTPEVTCVVVDVSHEDPEVKFNWYVDGVEVHNAKTKPREEQYNSTYRVVSVLTVLHQDWLNGKEYKCKVSNKALPAPIEKTISKAKGQPREPQVYTLPPSRDELTKNQVSLTCLVKGFYPSDIAVEWESNGQPENNYKTTPPVLDSDGSFFLYSKLTVDKSRWQQGNVFSCSVMHEALHNHYTQKSLSLSPG

CD28 costimulation EC50, Jurkat/IL-2 luciferase reporter; SIP 3 (Supernatant) from Donor 1 Pan T-cells (human CD28 [1]): 0.294 nM | CD28 costimulation EC50, Jurkat/IL-2 luciferase reporter; SIP 3 (Supernatant) from Donor 2 Pan T-cells (human CD28 [1]): 0.961 nM | CD28 costimulation EC50, Jurkat/IL-2 luciferase reporter; SIP 3 (Supernatant) from Jurkat cells (human CD28 [1]): 0.961 nM
B2: SIP 3: Variant CD80 IgV-GSG4S-Inert Fc (H18Y, E35D, M47V, V68M, and A71G) (Fc fusion)
chain: B1 chain with H18Y, V46D, L47V, A71G

CD28 costimulation EC50, Jurkat/IL-2 luciferase reporter; SIP 4 (Supernatant) from Donor 1 Pan T-cells (human CD28 [1]): 0.153 nM | CD28 costimulation EC50, Jurkat/IL-2 luciferase reporter; SIP 4 (Supernatant) from Donor 2 Pan T-cells (human CD28 [1]): 0.221 nM | CD28 costimulation EC50, Jurkat/IL-2 luciferase reporter; SIP 4 (Supernatant) from Jurkat cells (human CD28 [1]): 0.221 nM
B3: SIP 4: Variant CD80 IgV-GSG4S-Inert Fc (H18Y, A26P, E35D, M47I, V68M, and A71G) (Fc fusion)
chain: B1 chain with H18Y, A26P, V46D, L47I, A71G

Fold change to WT CD80 (human PD-L1): 439 fold | Fold change to WT CD80 (human CTLA-4): 2.6 fold | Fold change to WT CD80 (human CD28 [2]): 83.7 fold
B4: CD80 E35D/M47V/N48K/V68M/K89N IgV-Fc, delta linker (Fc fusion)
chain: VIHVTKEVKEVATLSCGHNVSVEELAQTRIYWQKDKKMVLTMMSGDVKIWPEYKNRTIFDITNNLSIMILALRPSDEGTYECVVLKYENDAFKREHLAEVTLSVKTHTCPPCPAPEAEGAPSVFLFPPKPKDTLMISRTPEVTCVVVDVSHEDPEVKFNWYVDGVEVHNAKTKPREEQYNSTYRVVSVLTVLHQDWLNGKEYKCKVSNKALPAPIEKTISKAKGQPREPQVYTLPPSREEMTKNQVSLTCLVKGFYPSDIAVEWESNGQPENNYKTTPPVLDSDGSFFLYSKLTVDKSRWQQGNVFSCSVMHEALHNHYTQKSLSLSPG

Fold change to WT CD80 (human PD-L1): 484 fold | Fold change to WT CD80 (human CTLA-4): 10.2 fold | Fold change to WT CD80 (human CD28 [2]): 74.7 fold
B5: CD80 E35D/D46V/M47L/V68M/L85Q/E88D IgV-Fc, delta linker (Fc fusion)
chain: B4 chain with D46V, V47L, K48N, L85Q, E88D, N89K
